Target: PCSK9 (UniProt Q8NBP7)
Test: SPR

Sequence of UniProt Q8NBP7 (Q8NBP7 31-692): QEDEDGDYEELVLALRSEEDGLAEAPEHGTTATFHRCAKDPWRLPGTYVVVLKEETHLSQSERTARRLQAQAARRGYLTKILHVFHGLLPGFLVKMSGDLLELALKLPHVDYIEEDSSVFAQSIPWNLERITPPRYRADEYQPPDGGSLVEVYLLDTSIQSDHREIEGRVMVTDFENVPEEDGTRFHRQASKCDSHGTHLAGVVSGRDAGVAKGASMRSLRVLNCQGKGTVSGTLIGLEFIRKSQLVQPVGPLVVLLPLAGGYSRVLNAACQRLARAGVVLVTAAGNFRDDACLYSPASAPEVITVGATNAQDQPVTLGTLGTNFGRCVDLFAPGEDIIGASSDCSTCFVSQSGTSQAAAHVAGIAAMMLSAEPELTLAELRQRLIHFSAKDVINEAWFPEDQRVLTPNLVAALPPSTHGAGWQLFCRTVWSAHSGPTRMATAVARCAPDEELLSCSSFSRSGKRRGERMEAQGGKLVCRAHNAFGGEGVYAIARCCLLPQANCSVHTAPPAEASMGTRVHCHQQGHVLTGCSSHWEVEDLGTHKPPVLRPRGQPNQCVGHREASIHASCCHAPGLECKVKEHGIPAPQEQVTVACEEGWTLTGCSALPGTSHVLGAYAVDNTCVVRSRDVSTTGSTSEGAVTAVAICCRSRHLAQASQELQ

Bococizumab (antibody) showed a Kd of 0.03 nM.

Reference: publication PMC7592150
